From CN113173995A (SHANGHAI PUBLIC HEALTH CLINICAL CT, dated 2021)

What was measured:
Test in all cases: cell-based or functional assay
SARS-CoV-2 S蛋白突变株E309D = SARS-CoV-2 S蛋白突变株E309D (SARS-CoV-2, UniProt P0DTC2 14-1273)
SARS-CoV-2 S蛋白突变株P491A = SARS-CoV-2 S蛋白突变株P491A (SARS-CoV-2, UniProt P0DTC2 14-1273)
SARS-CoV-2 S蛋白突变株A372T = SARS-CoV-2 S蛋白突变株A372T (SARS-CoV-2, UniProt P0DTC2 14-1273)
SARS-CoV-2 S蛋白突变株F342L = SARS-CoV-2 S蛋白突变株F342L (SARS-CoV-2, UniProt P0DTC2 14-1273)
SARS-CoV-2 S蛋白突变株T376A = SARS-CoV-2 S蛋白突变株T376A (SARS-CoV-2, UniProt P0DTC2 14-1273)

Measured: 假病毒中和 IC50 (Huh-7细胞, 荧光素酶)

B1: 全人源新型冠状病毒单抗REGN10989 (antibody, V domains shown)
VH: QVQLVQSGAEVKKPGASVKVSCKASGYIFTGYYMHWVRQAPGQGLEWMGWINPNSGGANYAQKFQGRVTLTRDTSITTVYMELSRLRFDDTAVYYCARGSRYDWNQNNWFDPWGQGTLVTVSS
VL: QSALTQPASVSGSPGQSITISCTGTSSDVGTYNYVSWYQQHPGKAPKLMIFDVSNRPSGVSDRFSGSKSGNTASLTISGLQAEDEADYYCSSFTTSSTVVFGGGTKLTVL
> 50 µg/mL: SARS-CoV-2 S蛋白突变株E309D | SARS-CoV-2 S蛋白突变株P491A | SARS-CoV-2 S蛋白突变株A372T | SARS-CoV-2 S蛋白突变株F342L | SARS-CoV-2 S蛋白突变株T376A
